Measured values published in publication PMC11640315.

Target: Retinoid X receptor of turbot, HA-tagged (pcDNA3.1-RXR-HA) (turbot (Scophthalmus maximus))

In the case of “Farnesoid X receptor of turbot, Flag-tagged (pcDNA3.1-FXR-Flag)”, the activity of the SHP promoter, dual-luciferase reporter assay in HEK293 cells; co-transfection of FXR and RXR plasmids against the FXR plasmid was 3 times.
